These results are taken from patent US20050202532A1, “Helical synthetic peptides that stimulate cellular cholesterol efflux” (The Regents of the University of California, published 2005).

The target in test [1] is ATP-binding cassette transporter A1 (ABCA1), endogenous in J774 macrophages (Homo sapiens (Human)) (UniProt O95477).
Test [2] addresses ATP-binding cassette transporter A1 (ABCA1), endogenous in J774 macrophages (Homo sapiens (Human), UniProt O95477). Briefly: cell-based or functional assay.

The molecule “full-length recombinant apoA-I (His-tagged) (from UniProt P02647) (ligand)” displayed a concentration giving maximal cholesterol efflux in test [1] of 10 µg/mL.

For Ac-PALEDLRQGLLPVLESFKVSFLSALEEYTKKLN-NH2 [9/10 peptide, aa 209-241 of apoA-I (33-mer)], in test [2], the “potency in mediating ABCA1-dependent cholesterol efflux against the 1/9 chimera” value was 2 fold (against the 1/9 chimera).
